Experimental data published in PMC7239654, “R-spondins engage heparan sulfate proteoglycans to potentiate WNT signaling” (eLife, 2020).

Assays:
[1] = molecular target: T1, glycosylated GPC4 (Homo sapiens (assumed), UniProt O75487, heparan sulfate chains (glycosylated)); test: ELISA; 96-well plate coated with 5 μg/ml of the GPC protein; HS20 added in serial 2-fold dilutions starting from 1 μg/ml, 1 hr at RT; washed with PBST; detected with goat anti-human kappa chain HRP conjugate and TMB, absorbance at 450 nm; conditions: both partners purified
T1 construct: glypican 4 (GPC4), glycosylated recombinant protein, R and D Systems Cat. # 9195-GP; also called glypican 4; source: bought: R and D Systems

[2] = molecular target: T2, glycosylated GPC3 (Homo sapiens (assumed), UniProt P51654, heparan sulfate chains (glycosylated)); test: as above; conditions: both partners purified
T2 construct: glypican 3 (GPC3), glycosylated recombinant protein, R and D Systems Cat. # 2119-GP; also called glypican 3; source: bought: R and D Systems
T2 sequence (P51654 25-580): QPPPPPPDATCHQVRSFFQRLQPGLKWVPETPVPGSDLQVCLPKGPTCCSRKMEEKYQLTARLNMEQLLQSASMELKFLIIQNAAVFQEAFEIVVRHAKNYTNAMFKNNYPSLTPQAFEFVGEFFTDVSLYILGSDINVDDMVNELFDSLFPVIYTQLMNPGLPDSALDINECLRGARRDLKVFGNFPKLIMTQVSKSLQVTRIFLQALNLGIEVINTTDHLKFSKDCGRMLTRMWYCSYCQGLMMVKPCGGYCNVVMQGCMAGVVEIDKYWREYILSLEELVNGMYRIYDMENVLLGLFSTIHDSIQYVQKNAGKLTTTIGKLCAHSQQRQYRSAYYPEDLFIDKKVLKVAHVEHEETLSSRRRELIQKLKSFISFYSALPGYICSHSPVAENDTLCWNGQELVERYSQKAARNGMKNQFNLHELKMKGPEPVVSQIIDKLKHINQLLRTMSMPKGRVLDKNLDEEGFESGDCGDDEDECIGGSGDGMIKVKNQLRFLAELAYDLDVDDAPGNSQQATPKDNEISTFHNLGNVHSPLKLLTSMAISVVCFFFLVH

T1 sequence (O75487 19-529): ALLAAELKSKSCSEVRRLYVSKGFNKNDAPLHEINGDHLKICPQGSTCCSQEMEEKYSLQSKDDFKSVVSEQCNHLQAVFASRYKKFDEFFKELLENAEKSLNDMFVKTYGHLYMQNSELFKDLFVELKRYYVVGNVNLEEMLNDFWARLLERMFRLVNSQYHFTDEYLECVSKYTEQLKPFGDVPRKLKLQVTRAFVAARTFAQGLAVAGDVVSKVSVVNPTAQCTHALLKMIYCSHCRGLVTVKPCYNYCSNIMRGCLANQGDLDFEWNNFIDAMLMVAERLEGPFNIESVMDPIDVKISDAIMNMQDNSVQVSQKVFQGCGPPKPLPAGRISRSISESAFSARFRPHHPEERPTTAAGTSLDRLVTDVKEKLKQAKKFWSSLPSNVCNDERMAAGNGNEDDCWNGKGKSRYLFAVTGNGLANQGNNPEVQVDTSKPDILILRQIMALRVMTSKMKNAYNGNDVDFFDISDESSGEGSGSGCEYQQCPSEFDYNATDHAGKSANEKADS

B1: HS20 scFv (scFv, V domains shown)
VH: EVQLLESGGGLVQPGGSLRLSCAASGFTFSSYAMSWVRQAPGKGLEWVSTIQKQGLPTQYADSVKGRFTISRDNSKNTLYLQMNSLRAEDTAVYYCAKNRAKFDYWGQGTLVTVSS
VL: DIQMTQSPSSLSASVGDRVTITCRASQSISSYLNWYQQKPGKAPKLLIYAASMLQSGVPSRFSGSGSGTDFTLTISSLQPEDFATYYCQQNRGFPLTFGQGTKVEIK
notes: it was detected through its human kappa chain
binding result [1]: binds | binding result [2]: binds
